For assay [1], the target named is HAdV-D53 fiber knob protein (human adenovirus D53). The experiment in a line: crystal structure; apo crystals of recombinant fiber knob protein; Pact Premier Screen, 18 °C, data at 100 K; trimer seen in the structure.
For assay [2], the target named is HAdV-D29 fiber knob protein (human adenovirus D29). The assay is described as above.
The target in assay [3] is HAdV-D30 fiber knob protein (human adenovirus D30). The assay is described as above.
The target in assay [4] is HAdV-D32 fiber knob protein (human adenovirus D32). The description is as above.
Assay [5] concerns the target HAdV-D24 fiber knob protein (human adenovirus D24). The assay is described as above.
Assay [6] concerns the target T1, HAdV-D29 fiber-knob protein (Human adenovirus 29, UniProt E1CIQ3).
T1 construct: gene L5; trimer
The experiment in a line: X-ray crystal structure of soaked crystal. The conditions noted are these: 10 mM soak; conserved apical pocket; mixture of alpha and beta anomers. It counts as binding.

The target in assay [7] is T2, HAdV-D25 fiber-knob protein (Human adenovirus 25, UniProt M0QUM1).
T2 construct: gene L5; trimer
The assay is described as follows: X-ray crystal structure of soaked crystal. It counts as binding. The following applies: 10 mM soak; conserved apical pocket; mixture of alpha and beta anomers.

For assay [8], the target named is T3, HAdV-D53 fiber-knob protein (Human adenovirus 53, UniProt E5RWD1).
T3 construct: gene L5; trimer
The experiment in a line: X-ray crystal structure of briefly soaked crystal. It counts as binding. The following applies: 10 mM, very short soak; conserved apical pocket; beta anomer modelled.

The target of assay [9] is T4, HAdV-D30 fiber-knob protein (Human adenovirus 30, UniProt M0QTV3).
T4 construct: gene L5; trimer
The assay is described as follows: X-ray crystal structure of soaked crystal. It counts as binding. The following applies: 10 mM soak; conserved apical pocket; mixture of alpha and beta anomers.

Assay [10] addresses HAdV-D15 fiber knob protein (human adenovirus D15). The assay is described as follows: crystal structure; apo crystals of recombinant fiber knob protein; Pact Premier Screen, 18 °C, data at 100 K; trimer seen in the structure.

What is called stoichiometry N is the number of molecules, sites or subunits per partner or assembly.

In the case of “HAdV-D53 fiber knob protein (domain or fragment)”, in assay [1], the stoichiometry N is 3.

Take “HAdV-D29 fiber knob protein (domain or fragment)”: the stoichiometry N in assay [2] was 3.

On to “HAdV-D30 fiber knob protein (domain or fragment)”, for which the stoichiometry N in assay [3] came to 3.

For the compound “HAdV-D32 fiber knob protein (domain or fragment)”, in assay [4], the stoichiometry N worked out at 3.

As to “HAdV-D24 fiber knob protein (domain or fragment)”, the stoichiometry N in [5] came to 3.

Turning to `CC(=O)N[C@H]1[C@H]([C@H](O)[C@H](O)CO)OC(O)(C(=O)O)C[C@@H]1O` (mixture of isomers) [sialic acid], the “X-ray crystal structure of soaked crystal” value in [6] was “four structures of HAdV-D25, D29, D30 and D53 in complex with sialic acid”; in assay [7], “four structures of HAdV-D25, D29, D30 and D53 in complex with sialic acid”; in assay [9], “four structures of HAdV-D25, D29, D30 and D53 in complex with sialic acid”. Besides, in assay [8], the “X-ray crystal structure of briefly soaked crystal” value was “short soak allowed only two of four trimers in the asymmetric unit to bind β-sialic acid”.

Take “HAdV-D15 fiber knob protein (domain or fragment)”: the stoichiometry N in assay [10] stood at 3.
